Data: patent publication US7459543B2, “Modulators of antiestrogen pharmacology” (priority 2000, dated 2008)

T1: estrogen receptor α (ERα) (Homo sapiens, UniProt P03372)
T1 construct: made in house
T1 sequence (P03372 1-595): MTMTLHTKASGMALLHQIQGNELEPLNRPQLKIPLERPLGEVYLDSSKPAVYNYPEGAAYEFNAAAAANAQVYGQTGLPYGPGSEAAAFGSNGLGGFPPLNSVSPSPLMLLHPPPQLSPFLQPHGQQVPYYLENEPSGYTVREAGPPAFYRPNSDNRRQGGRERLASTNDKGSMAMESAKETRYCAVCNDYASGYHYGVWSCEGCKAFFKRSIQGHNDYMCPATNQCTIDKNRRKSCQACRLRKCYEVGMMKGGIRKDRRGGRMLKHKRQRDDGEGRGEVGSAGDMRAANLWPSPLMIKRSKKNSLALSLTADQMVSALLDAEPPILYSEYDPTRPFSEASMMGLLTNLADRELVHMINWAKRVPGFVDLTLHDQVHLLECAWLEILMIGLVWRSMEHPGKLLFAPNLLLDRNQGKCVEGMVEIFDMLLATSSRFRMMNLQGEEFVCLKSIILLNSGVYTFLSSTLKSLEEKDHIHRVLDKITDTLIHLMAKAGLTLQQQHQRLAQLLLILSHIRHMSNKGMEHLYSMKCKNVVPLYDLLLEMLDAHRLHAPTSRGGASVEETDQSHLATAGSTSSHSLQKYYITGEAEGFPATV

T2: Progesterone Receptor β (PRβ) (Homo sapiens, UniProt P06401)
T2 sequence (P06401 1-933): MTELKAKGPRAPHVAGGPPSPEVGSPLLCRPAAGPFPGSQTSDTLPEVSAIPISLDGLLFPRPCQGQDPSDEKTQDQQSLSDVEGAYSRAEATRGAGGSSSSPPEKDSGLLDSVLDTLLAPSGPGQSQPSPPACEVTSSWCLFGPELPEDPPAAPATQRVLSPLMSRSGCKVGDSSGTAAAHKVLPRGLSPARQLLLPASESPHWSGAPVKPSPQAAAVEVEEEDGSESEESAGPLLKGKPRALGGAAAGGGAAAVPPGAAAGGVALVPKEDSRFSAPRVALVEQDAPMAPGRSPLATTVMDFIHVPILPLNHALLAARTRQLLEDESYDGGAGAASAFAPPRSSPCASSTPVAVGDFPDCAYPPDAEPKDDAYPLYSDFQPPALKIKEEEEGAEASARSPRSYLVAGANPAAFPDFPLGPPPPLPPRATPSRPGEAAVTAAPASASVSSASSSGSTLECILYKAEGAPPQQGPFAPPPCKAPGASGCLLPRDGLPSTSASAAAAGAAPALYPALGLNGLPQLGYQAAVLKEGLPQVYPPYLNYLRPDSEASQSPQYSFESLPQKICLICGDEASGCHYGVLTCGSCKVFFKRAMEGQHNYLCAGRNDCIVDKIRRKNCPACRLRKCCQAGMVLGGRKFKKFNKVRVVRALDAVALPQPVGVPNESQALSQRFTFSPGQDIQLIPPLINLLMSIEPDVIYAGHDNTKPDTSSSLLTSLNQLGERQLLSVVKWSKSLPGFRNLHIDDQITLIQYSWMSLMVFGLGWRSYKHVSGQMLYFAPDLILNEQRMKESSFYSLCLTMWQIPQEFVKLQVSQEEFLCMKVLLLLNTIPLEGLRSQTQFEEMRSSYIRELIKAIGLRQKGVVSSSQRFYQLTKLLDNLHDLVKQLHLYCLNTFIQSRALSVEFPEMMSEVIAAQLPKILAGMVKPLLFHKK


What was measured:
ERCoA3 = assay: Northern hybridization for ERCoA3 expression in MCF-7 cells; assay type: cell-based, human; details: 10^-8 M, 24 h
Description: FIG. 8. ERCoA3 is expressed in cells that respond to tamoxifen as an agonist. (A) Total RNA was isolated from untreated parental MCF-7 cells (−), and cells treated for 24 h with 10^−8 M estradiol (E2) or 10^−8 M trans-hydroxytamoxifen (TOT), and tamoxifen resistant cells (TOT^R). (B) Total RNA was collected from untreated Hec cells and cells treated for 24 h with 10^−8 M estradiol (E2) or 10^−8 M trans-hydroxytamoxifen. Equal amounts (20 μg) of total RNA were separated by electrophoresis. Blots were probed with the random primer labeled ERCoA3 cDNA and 36B4 cDNA (to control for RNA loading).
It was determined whether there was increased expression of ERCoA3 in cells that were resistant to SERMs, specifically TOT. RNA was isolated from MCF-7 cells and also from tamoxifen-resistant (TOT^R) MCF-7 cells. Northern hybridization was performed using an ERCoA3 probe. These experiments indicated increased expression of ERCoA3 in TOT^R MCF-7 cells when compared to parental MCF-7 cells (FIG. 8A). […] Expression of ERCoA3 was also examined in another human cell line, human endometrium cancer cell line, HEC-1B.

[1] = target: T1, estrogen receptor α (ERα); assay: GST-ERCoA3 protein-protein interaction (pull-down) assay with [35S]-ERα; assay type: binding; details: vehicle, 10^-6 M E2, TOT or ICI
Description: (§1) FIG. 4. ERCoA3 preferentially interacts with antagonist-bound ERα and PRβ. In vitro translated and [^35S]-methionine-labeled (A) Estrogen Receptor α (ERα) or (B) Progesterone Receptor β (PRβ) were incubated with GST alone or GST-ERCoA3 bound to Sepharose in the presence of vehicle, 10^−6 M Estradiol (E2), 10^−6 M trans-hydroxytamoxifen (TOT), 10^−6 M ICI 182,780 (ICI), 10^−6 M R5020, or 10^−6 M RU-486 as indicated. Bound protein was eluted with excess glutathione and analyzed by 12.5% SDS-polyacrylamide gel electrophoresis. The autoradiograph is representative of 3 separate experiments. Abbreviations: E2, 17-β estradiol; TOT, transhydroxytamoxifen; ICI, ICI182,780 (a pure ER antagonist); R5020, a synthetic PR agonist, and RU-486, a partial agonist of PRβ.
A protein-protein interaction assay was used in which the affinity matrix (i.e., bound to a column) was a glutathione-S-transferase (GST) fusion protein wherein GST was fused to ERCoA3. In vitro transcribed and translated [^35S]-ERα was retained by the GST-ERCoA3 affinity column preferentially in the presence of antiestrogens, trans-hydroxytamoxifen (TOT) and ICI182,780 (ICI) when compared to estradiol (E2) (FIG. 4A). ERα was not retained on the GST protein column without ERCoA3 (or GST alone).

[2] = target: T2, Progesterone Receptor β (PRβ); assay: GST-ERCoA3 protein-protein interaction (pull-down) assay with [35S]-PRβ; assay type: binding; details: vehicle, 10^-6 M R5020 or RU-486
Description: as §1
(§2) Somewhat different findings were made with Progesterone Receptor β (PRβ).

ERα = assay: (ERE)2-TATA-CAT reporter assay in CHO cells transfected with ERα; assay type: cell-based; details: CHO cells cotransfected with ERCoA3 expression vector vs cmv5 control; estrogen, TOT or ICI, 24 h
Description: FIG. 5. ERCoA3 enhances partial agonist activity of antiestrogens. CHO cells were transfected with expression vectors for ERα and reporter construct (ERE)2-TATA-CAT. The cells were cotransfected with cmv5 control expression vector or expression vector for ERCoA3, as indicated. The cells were also transfected with a β-galactosidase internal control reporter to correct for transfection efficiency. Cells were then treated for 24 h with control vehicle or increasing concentrations of estradiol (E2), trans-hydroxytamoxifen (TOT) or ICI 182,780, as indicated. Values are the means ± S.E. from three separate experiments.
The ability of ERCoA3 to affect the response that a ligand has on ER was then tested. CHO cells were transfected with a CAT reporter construct wherein transcription of the CAT gene was regulated by a estrogen-responsive element, or with both a CAT reporter construct and an expression vector for ERCoA3. The cells were grown in either estrogen, TOT or ICI, and CAT activity was assayed.

[3] = tested on: ERα transcriptional activity; assay: (ERE)2-PS2-CAT reporter assay in MCF-7 cells; assay type: cell-based, human; details: MCF-7 cells cotransfected with ERCoA3 vs cmv5 control; 10^-8 M E2 plus increasing TOT or ICI, 24 h
Description: FIG. 6. ERCoA3 attenuates the antiestrogenic effects of TOT and ICI on ERα transcriptional activity. MCF-7 cells were transfected with (ERE)2-PS2-CAT reporter construct. The cells were cotransfected with cmv5 control expression vector or expression vector for ERCoA3, as indicated. The cells were also transfected with a β-galactosidase internal control reporter to correct for transfection efficiency. Cells were then treated for 24 h with 10^−8 M estradiol (E2) and increasing concentration of trans-hydroxytamoxifen (TOT; panel A) or ICI 182,780 (ICI; panel B). Values are the means ±S.E. from three separate experiments.
Another very similar study examined the effect of ERCoA3 on the ability of TOT (FIG. 6A) and ICI (FIG. 6B) to block activation of ER. MCF-7 cells were transfected with a CAT reporter construct wherein transcription of the CAT gene was regulated by a estrogen-responsive element, or with both a CAT reporter construct and an expression vector for ERCoA3. The cells were then grown in TOT or ICI and CAT activity was assayed.

[4] = target: T2, Progesterone Receptor β (PRβ); assay: MMTV-CAT reporter assay in CHO cells transfected with PRβ; assay type: cell-based; set-up: expressed in transfected cells; host or cells: CHO cells; details: CHO cells cotransfected with ERCoA3 vs cmv5 control; unliganded, 10^-8 M R5020 or RU-486, 24 h
Description: FIG. 7. ERCoA3 enhances partial agonist activity of RU-486. CHO cells were transfected with expression vectors for Progesterone Receptor β (PRβ) or reporter construct MMTV-CAT. The cells were cotransfected with cmv5 control expression vector or expression vector for ERCoA3 as indicated. The cells were also transfected with a β-galactosidase internal control reporter to correct for transfection efficiency. Cells were then treated for 24 h with 10^−8 M R5020 or RU-486. Values are the means ±S.E. from three separate experiments.
as §2

Row | Molecule | ERCoA3 expression (Northern) (ERCoA3) | retention of [35S]-ERα on GST-ERCoA3 affinity column [1] | interaction of ERCoA3 with PRβ [2] | CAT activity (activation of ER) (ERα) | activation of ER (CAT activity) in presence of TOT or ICI [3] | PRβ transcriptional activity [4]
1 | C[C@]12CC[C@@H]3c4ccc(O)cc4CC[C@H]3[C@@H]1CC[C@@H]2O [E2, 17-β-estradiol] | Neither E2 nor TOT affected ERCoA3 expression | – | – | – | – | –
2 | trans-hydroxytamoxifen [TOT] | Neither E2 nor TOT affected ERCoA3 expression | – | – | – | – | –
3 | ERCoA3: 79 amino acid ER coactivator protein (SEQ. ID. NO. 2); used as GST fusion or expressed from vector (protein, listed as Homo sapiens) MCGRPRRVSAGCGFADAHWTGLWTGLGEGQEGGIGPEGQASPTPDCASRWPRSASRWPWSAGLTVRDRPQLGELCMGRG | – | binds ER but binds ER better if ER are already bound to a partial agonist or antagonist | interacted with both unliganded and antiprogestin- (RU-486, a partial agonist) bound PRβ | increased CAT activity | increases activation of ER | enhanced the activity of both unliganded and RU-486-bound PRβ
